Assay results reported in the supplement of paper PMC11246515.
± gives the standard deviation of the averaged measurements.

Assay: total protein half-life in vivo (active degradation + dilution); higher = more stable protein
[1] = wild type E. coli NCM3722, growth: C-lim chemostat, doubling time 6 h
[2] = wild type E. coli NCM3722, growth: C-lim chemostat, doubling time 12 h
[3] = wild type E. coli NCM3722, growth: N-lim chemostat, doubling time 6 h
[4] = wild type E. coli NCM3722, growth: P-lim chemostat, doubling time 6 h
[5] = wild type E. coli NCM3722, growth: P-lim chemostat, doubling time 12 h
[6] = E. coli NCM3722 delta-clpP, growth: N-lim chemostat, doubling time 6 h
[7] = E. coli NCM3722 delta-hslV, growth: N-lim chemostat, doubling time 6 h
[8] = E. coli NCM3722 delta-lon, growth: N-lim chemostat, doubling time 6 h
[9] = E. coli NCM3722 delta-smpB, growth: N-lim chemostat, doubling time 6 h
[10] = wild type E. coli NCM3722, growth: C-lim chemostat, doubling time 3 h
[11] = wild type E. coli NCM3722, growth: N-lim chemostat, doubling time 12 h
[12] = E. coli NCM3722 delta-clpP delta-lon delta-hslV, growth: N-lim chemostat, doubling time 6 h

Sequence | total protein half-life in vivo [1] | total protein half-life in vivo [2] | total protein half-life in vivo [3] | total protein half-life in vivo [4] | total protein half-life in vivo [5] | total protein half-life in vivo [6] | total protein half-life in vivo [7] | total protein half-life in vivo [8] | total protein half-life in vivo [9] | total protein half-life in vivo [10] | total protein half-life in vivo [11] | total protein half-life in vivo [12]
MKISRLGEAPDYRFSLANERTFLAWIRTALGFLAAGVGLDQLAPDFATPVIRELLALLLCLFSGGLAMYGYLRWLRNEKAMRLKEDLPYTNSLLIISLILMVVAVIVMGLVLYAG [P0ADM0] | 5.742 ± 0.053 h | > 16 h | 5.98 h | 5.91 h | 5 h |  |  |  |  |  |  | 
MNNHFKCIGIVGHPRHPTALTTHEMLYRWLCTKGYEVIVEQQIAHELQLKNVKTGTLAEIGQLADLAVVVGGDGNMLGAARTLARYDIKVIGINRGNLGFLTDLDPDNAQQQLADVLEGHYISEKRFLLEAQVCQQDCQKRISTAINEVVLHPGKVAHMIEFEVYIDEIFAFSQRSDGLIISTPTGSTAYSLSAGGPILTPSLDAITLVPMFPHTLSARPLVINSSSTIRLRFSHRRNDLEISCDSQIALPIQEGEDVLIRRCDYHLNLIHPKDYSYFNTLSTKLGWSKKLF [P0A7B3] | 5.33 ± 0.2 h | 12.1 h | 4.4 ± 0.37 h | 5.9 ± 0.21 h | 11.1 ± 0.2 h | 4.25 ± 0.11 h | 5.35 ± 1.2 h | 6.6 ± 1.1 h | 4.75 ± 0.69 h | 3.19 ± 0.49 h | 7.59 h | 
MTKQVKIYHNPRCSKSRETLNLLKENGVEPEVVLYLETPADAATLRDLLKILGMNSARELMRQKEDLYKELNLADSSLSEEALIQAMVDNPKLMERPIVVANGKARIGRPPEQVLEIVG | 5.12 ± 0.37 h | 7.332 ± 0.073 h | 2.58 ± 0.029 h | 3.87 ± 0.41 h | 8.07 ± 0.2 h | 5.8 h | 3.65 ± 0.025 h | 4.45 ± 0.96 h |  | 3.47 ± 0.39 h | 4.7 ± 1.2 h | 
MKTALLLEKLEGQLATLRQRCAPVSQFATLSARFDRHLFQTRATTLQACLDEAGDNLAALRHAVEQQQLPQVAWLAEHLAAQLEAIAREASAWSLREWDSAPPKIARWQRKRIQHQDFERRLREMVAERRARLARVTDLVEQQTLHREVEAYEARLARCRHALEKIENRLARLTR | 3.69 ± 0.51 h | 6.06 ± 3.5 h | 2.58 ± 0.12 h | 2.92 ± 0.094 h | 5.17 ± 0.34 h | 2.5 ± 0.12 h | 2.39 ± 0.15 h | 4.09 ± 0.54 h | 2.21 ± 0.046 h | 1.955 ± 0.0034 h | 2.85 ± 0.6 h | 4.68 ± 0.36 h
MKLTDADNAADGIFFPALEQNMMGAVLINENDEVMFFNPAAEKLWGYKREEVIGNNIDMLIPRDLRPAHPEYIRHNREGGKARVEGMSRELQLEKKDGSKIWTRFALSKVSAEGKVYYLALVRDASVEMAQKEQTRQLIIAVDHLDRPVIVLDPERHIVQCNRAFTEMFGYCISEASGMQPDTLLNIPEFPADNRIRLQQLLWKTARDQDEFLLLTRTGEKIWIKASISPVYDVLAHLQNLVMTFSDITEERQIRQLEGNILAAMCSSPPFHEMGEIICRNIESVLNESHVSLFALRNGMPIHWASSSHGAEIQNAQSWSATIRQRDGAPAGILQIKTSSGAETSAFIERVADISQHMAALALEQEKSRQHIEQLIQFDPMTGLPNRNNLHNYLDDLVDKAVSPVVYLIGVDHIQDVIDSLGYAWADQALLEVVNRFREKLKPDQYLCRIEGTQFVLVSLENDVSNITQIADELRNVVSKPIMIDDKPFPLTLSIGISYDLGKNRDYLLSTAHNAMDYIRKNGGNGWQFFSPAMNEMVKERLVLGAALKEAISNNQLKLVYQPQIFAETGELYGIEALARWHDPLHGHVPPSRFIPLAEEIGEIENIGRWVIAEACRQLAEWRSQNIHIPALSVNLSALHFRSNQLPNQVSDAMHAWGIDGHQLTVEITESMMMEHDTEIFKRIQILRDMGVGLSVDDFGTGFSGLSRLVSLPVTEIKIDKSFVDRCLTEKRILALLEAITSIGQSLNLTVVAEGVETKEQFEMLRKIHCRVIQGYFFSRPLPAEEIPGWMSSVLPLKI | 4.27 ± 0.69 h | 6.85 ± 0.2 h | 4.01 ± 0.26 h | 2.56 ± 0.83 h | 4.93 ± 0.014 h | 3.42 ± 0.28 h | 4.21 ± 0.49 h | 3.8 ± 0.26 h | 3.55 ± 0.9 h | 1.63 ± 0.42 h | 7.043 ± 0.059 h | 5.66 ± 0.45 h
MSKRLPPLNALRVFDAAARHLSFTRAAEELFVTQAAVSHQIKSLEDFLGLKLFRRRNRSLLLTEEGQSYFLDIKEIFSQLTEATRKLQARSAKGALTVSLLPSFAIHWLVPRLSSFNSAYPGIDVRIQAVDRQEDKLADDVDVAIFYGRGNWPGLRVEKLYAEYLLPVCSPLLLTGEKPLKTPEDLAKHTLLHDASRRDWQTYTRQLGLNHINVQQGPIFSHSAMVLQAAIHGQGVALANNVMAQSEIEAGRLVCPFNDVLVSKNAFYLVCHDSQAELGKIAAFRQWILAKAAAEQEKFRFRYEQ [P0A9F6] | 6.59 ± 0.7 h | 11 ± 0.54 h | 6.86 ± 0.45 h | 5.82 ± 0.081 h | 13.3 ± 1.3 h |  | 5.94 ± 0.4 h |  | 5.73 ± 0.34 h | 3.2 ± 0.13 h | 12.1 ± 0.34 h | 5.93 ± 0.27 h
MQYPINEMFQTLQGEGYFTGVPAIFIRLQGCPVGCAWCDTKHTWEKLEDREVSLFSILAKTKESDKWGAASSEDLLAVIGRQGYTARHVVITGGEPCIHDLLPLTDLLEKNGFSCQIETSGTHEVRCTPNTWVTVSPKLNMRGGYEVLSQALERANEIKHPVGRVRDIEALDELLATLTDDKPRVIALQPISQKDDATRLCIETCIARNWRLSMQTHKYLNIA | 4.33 ± 0.17 h | 6.66 ± 0.86 h | 3.7 ± 0.29 h | 4.61 ± 0.56 h | 7.47 ± 0.8 h | 3.94 h | 3.81 ± 0.46 h | 4.5 ± 0.086 h | 3.79 ± 0.57 h | 2.309 ± 0.014 h | 6.06 ± 0.13 h | 4.61 ± 0.46 h
MIKLSNITKVFHQGTRTIQALNNVSLHVPAGQIYGVIGASGAGKSTLIRCVNLLERPTEGSVLVDGQELTTLSESELTKARRQIGMIFQHFNLLSSRTVFGNVALPLELDNTPKDEVKRRVTELLSLVGLGDKHDSYPSNLSGGQKQRVAIARALASNPKVLLCDEATSALDPATTRSILELLKDINRRLGLTILLITHEMDVVKRICDCVAVISNGELIEQDTVSEVFSHPKTPLAQKFIQSTLHLDIPEDYQERLQAEPFTDCVPMLRLEFTGQSVDAPLLSETARRFNVNNNIISAQMDYAGGVKFGIMLTEMHGTQQDTQAAIAWLQEHHVKVEVLGYV | 5.76 ± 0.38 h | 9.681 ± 0.078 h | 5.85 ± 0.51 h | 6.3 ± 0.86 h | 12.1 ± 0.42 h | 6.41 ± 0.39 h | 6.04 ± 0.08 h | 6.66 ± 0.25 h | 5.61 ± 0.26 h |  | 12.67 ± 0.12 h | 6.5123 ± 0.0016 h
